{"source": "patent US20040267001A1", "about": "“Genes encoding baeyer-villiger monooxygenases” (priority 2001, published 2004)", "assay": "Conversion of cyclohexanone to caprolactone by E. coli clones expressing Rhodococcus erythropolis AN12 monooxygenases, GC-MS detection", "format": "cell-based, Escherichia coli", "conditions": "500 mg/L cyclohexanone, 0.1 mM IPTG, overnight at 24° C., GC-MS of ethylacetate extract", "method": "Following amplification, the gene fragments were cloned into pTrcHis-TOPO TA vectors with either an N-terminal tail or C-terminal tail, as provided by the vector sequence. These vectors were transformed into E. coli, with transformants grown in Luria-Bertani broth supplemented with ampicillin (100 ug/ml).\nThe chnB monooxygenase activity of each expressed enzyme from Example 9 was tested for activity according to its ability to convert cyclohexanone to caprolactone.\nClones containing the full length monooxygenase genes were transferred from LB agar plate to 5 mL of M63 minimal media (GIBCO) containing 10 mM glycerol, 50 ug/mL ampicillin, 0.1 mM IPTG, and 500 mg/L cyclohexanone. In addition to the clones containing full length monooxygenases, a plasmid without an insert and a “no cell” control were also assayed. The encoded monooxygenase sequences were expressed upon addition of IPTG to the culture media. The cultures were incubated overnight at room temperature (24° C.). Samples (1.25 mL) for analysis were taken immediately after inoculation and after overnight incubation; cells were removed by centrifugation (4° C., 13,000 rpm).\nCaprolactone formed by the action of the cloned monooxygenase was extracted from the aqueous phase with ethylacetate (1.0 ml aqueous/0.5 mL ethylacetate). Caprolactone was detected by gas chromotagraphy mass spectrometry (GC-MS) analysis, using an Agilent 6890 Gas chromatograph system.\nThe analysis of the ethylacetate phase was performed by injecting 1 uL of the ethyl acetate phase into the GC. The inlet temperature was 115° C. and the column temperature profile was 50° C. for 4 min and ramped to 250° C. at 20° C./min, for a total run time of 14 min. The compounds were separated with an Hewlet Packard HP-5MS (5% phenyl Methyl Siloxane) column (30 m length, 250 um diameter, and 0.25 um film thickness). The mass spectrometer was run in Electron Ionization mode. The background mass spectra was subtracted from the spectra at the retention time of caprolactone (9.857 min). Presence of caprolactone was confirmed by comparison of the test reactions to an authentic standard obtained from Aldrich Chemical Company (St. Louis, Mo.).\nResults of these assays are shown below in Table 7, in terms of the presence or absence of detectable caprolactone formation according to the activity of each expressed BV monooxygenase enzyme."}
{"molecule": "ORF 15: Rhodococcus erythropolis AN12 ORF 15 chnB monooxygenase, protein SEQ ID NO:36, expressed in E. coli (protein, Rhodococcus erythropolis AN12) MTIVTDLDRDHLRSAVLRGNVPTMLAVLLELTADERWVAPRYQPTRSRGMDDNSTGGLPEEVQSEIRSALIDAVERWWTLDEPSRRTLDSSEVERILNFTCSETVPPDFAPMMAEIVNGPQIKPATAKCDERLHAIVIGAGIAGMLASVELSRAGIPHVILEKNDDVGGSWWENRYPGAGVDTPSHLYSISSFPRNWSTHFGKRDEVQGYLEDFAEANDIRRNVRFRHEVTRAEFEESKQSWRVSVQRPGEASETLEAPILISAVGLLNRPKIPHLPGIETFRGRLFHSAEWPSELDDPESLRGKRVGIVGTGASAMQIGPAIADRVGSLTIFQRSPQWIAPNDDYFTTIDDGVHWLMDNIPGYREWYRARLSWIFNDKVYSSLQVDPDWPEPSASINATNHGHRKFYERYLRDQLGDRTDLIEASLPDYPPFGKRMLLDNGWFTMLRKPDVTLVPHGVDALTPSGLVDTNGVEHQLDVIVMATGFHSVRVLYPMDIVGRSGRSTGEIWGEHDARAYLGITVPDFPNFFVMTGPNTGLGHGGSFITILECQVRYIMDALKLMQSENLGAMECRAEVNDRYNEAVDRQHAQMVWTHPAMENWYRNPDGRVVSVLPWRINDYWAMTYRVDPSDFRTEPARSESVPTPTARG", "values": [{"measurement": "Formation of Caprolactone (ability to convert cyclohexanone to caprolactone)", "result": "Not Detected"}]}
